Measurements taken from patent US8227408B2, “Leptin as an anti-amyloidogenic biologic and methods for delaying the onset and reducing Alzheimer's disease-like pathology” (Neurotez, Inc., priority 2005, dated 2012).

System: BACE
Test: BACE activity, APP and flotillin in sucrose gradient fractions of treated SY5Y cells (fluorescence quenching assay)
Type: cell-based, human
Protocol: In panel (a), Neuro2a cells stably transfected with hyg-sa134 were treated for about 2 h or about 5 h with about 100 ng/ml leptin, Ob (black); about 125 mg/ml cyclodextrin, CDX (striped gray); about 5 mg/ml cholesterol, Ch (pale gray); and leptin plus cholesterol, Ob+Ch (medium gray). Media were collected and assayed for total Aβ by ELISAs (Figueiredo-Pereira et al., J Neurochem. 72:1417-22 (1999)). […] Water soluble cholesterol (Sigma-Aldrich, Mo.) is a solution made of cholesterol balanced with CDX (40 mg cholesterol per gr CDX). […] Extracts prepared from harvested cells were analysed by SDS-PAGE and Western blotting using an antibody directed against the C-terminal fraction of APP (C-APP, lanes 1-4) or actin (top lanes 5-8) or full-length APP (bottom lanes 5-8). […] Fractions collected from the bottom of the gradient were analysed by SDS-PAGE and Western blotting for the detection of APP and flotillin (marker for lipid rafts). […] In panel (e), fractions collected as above were assayed for β-secretase activity using a fluorescence-quenching assay (QTL Biosystems, NM). The results are expressed as the percent distribution of BACE activity within the gradient derived from cell cultures in the absence (black) or presence (gray) of leptin in the medium. […]

B1: Leptin: peptide hormone controlling adaptive metabolic mechanisms to energy availability; leptin (Harbor-UCLA) in vitro, recombinant murine leptin in mice (protein, UniProt P41160 22-167, looked up)
Leptin: VPIQKVQDDTKTLIKTIVTRINDISHTQSVSAKQRVTGLDFIPGLHPILSLSKMDQTLAVYQQVLTSLPSQNVLQIANDLENLRDLLHLLAFSKSCSLPQTSGLQKPESLDGVLEASLYSTEVVALSRLQGSLQDILQQLDVSPEC
With B1 the “activity of BACE in the low density fractions” value (about 400 ng/ml leptin, about 5 h, sucrose gradient fractions) was “almost absent” and the “flotillin migration / elution position on sucrose gradient” value (compared to controls) was “migrated at heavier subcellular fractions”.
